Results on 2 molecules are retold here after US20200157237A1 (BROAD INSTITUTE, published 2020).

The target in one data set is T1, Il12rb1 (mouse, UniProt Q60837 20-738).
T1 construct: whole, on cells; Tie to CD5L:p40 rests on loss of staining and of effect in knockout cells; also called Ilrb1
T1 sequence (looked up): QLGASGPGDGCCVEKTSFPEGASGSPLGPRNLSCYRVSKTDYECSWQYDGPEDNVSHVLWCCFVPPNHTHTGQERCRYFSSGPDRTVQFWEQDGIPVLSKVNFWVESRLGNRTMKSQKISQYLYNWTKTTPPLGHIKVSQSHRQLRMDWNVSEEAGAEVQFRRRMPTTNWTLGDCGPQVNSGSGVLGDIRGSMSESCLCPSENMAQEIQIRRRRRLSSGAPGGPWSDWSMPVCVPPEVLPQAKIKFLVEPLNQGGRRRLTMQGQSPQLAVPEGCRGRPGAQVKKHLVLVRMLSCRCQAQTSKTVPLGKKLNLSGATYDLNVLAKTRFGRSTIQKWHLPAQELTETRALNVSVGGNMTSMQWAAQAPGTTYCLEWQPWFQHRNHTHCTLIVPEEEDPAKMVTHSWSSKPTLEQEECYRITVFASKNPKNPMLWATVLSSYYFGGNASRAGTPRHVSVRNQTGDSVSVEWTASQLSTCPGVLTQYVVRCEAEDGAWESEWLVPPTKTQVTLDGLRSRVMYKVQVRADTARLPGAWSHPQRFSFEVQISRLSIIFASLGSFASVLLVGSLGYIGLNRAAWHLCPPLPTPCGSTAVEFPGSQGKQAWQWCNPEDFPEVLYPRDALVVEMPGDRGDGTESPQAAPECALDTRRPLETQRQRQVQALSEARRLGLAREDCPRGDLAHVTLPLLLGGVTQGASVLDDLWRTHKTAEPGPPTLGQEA
The experiment in a line: flow cytometry, His-tagged CD5L:p40 and anti-His antibody on T cells of wildtype or Il12rb1KO mice (FIG. 56A). From the text:
FIG. 56A-F—Recombinant CD5L:p40 can bind to Th17 cells directly and alters T cell signaling pathways and metabolism. A) recombinant CD5L:p40 (his-tagged) were used to stain pathogenic Th17 cells (IL-1b+IL-6+IL-23),Th1 cells (IL-12) or Th0 cells differentiated from naïve T cells isolated from wildtype or Il12rb1KO mice followed by anti-His antibodies and analysis by flow cytometry. B-D) As Stat3 and Stat4 regulate IL-17 responses, we analyzed pStat3 and pStat4 expression. B-C) CD5L:p40 suppresses pStat3. 28 nM recombinant CD5L:p40 were used to stimulate naïve T cells in the presence of 10 ug/ml of anti-CD3 antibodies (TCR) with or without other indicated cytokines (B) or to stimulate Th17p cells (C) and cells were harvested for phosphoflow preparation and analysis of pStat3 at the indicated time points. D) CD5L:p40 suppresses pStat4 but not pTyk2. Western blotting analysis of pStat4 and pTyk2 expression by Th17p cells (equal protein loaded per lane) differentiated from naïve T cells isolated from wildtype mice and subjected to stimulation by either control (C), CD5L monomer (L), CD5L homodimer (LL), CD5L:p40 (L4) or p40:p40 homodimer (44) for the indicated time. E) CD5L:p40 suppresses pRictorY, pS6 and p38. To study whether CD5L:p40 influence other signaling pathways, we analysed several other phospho-proteins as indicated. […]
(In general: In flow cytometry, cells or beads pass a laser one at a time.)

Data set [1] deals with the molecule itself. The experiment in a line: purification of recombinant CD5L (FIG. 8A).

B1: recombinant CD5L:p40 heterodimer (genetically linked mouse p40-linker-CD5L with His tag) (ligand)
chain: MWELEKDVYVVEVDWTPDAPGETVNLTCDTPEEDDITWTSDQRHGVIGSGKTLTITVKEFLDAGQYTCHKGGETLSHSHLLLHKKENGIWSTEILKNFKNKTFLKCEAPNYSGRFTCSWLVQRNMDLKFNIKSSSSSPDSRAVTCGMASLSAEKVTLDQRDYEKYSVSCQEDVTCPTAEETLPIELALEARQQNKYENYSTSFFIRDIIKPDPPKNLQMKPLKNSQVEVSWEYPDSWSTPHSYFSLKFFVRIQRKKEKMKETEEGCNQKGAFLVEKTSTEVQCKGGNVCVQAQDRYYNSSCSKWACVPCRVRSGGGSGGGSGGGSGGESPTKVQLVGGAHRCEGRVEVEHNGQWGTVCDDGWDRRDVAVVCRELNCGAVIQTPRGASYQPPASEQRVLIQGVDCNGTEDTLAQCELNYDVFDCSHEEDAGAQCENPDSDLLFIPEDVRLVDGPGHCQGRVEVLHQSQWSTVCKAGWNLQVSKVVCRQLGCGRALLTYGSCNKSTQGKGPIWMGKMSCSGQEANLRSCLLSRLENNCTHGEDTWMECEDPFELKLVGGDTPCSGRLEVLHKGSWGSVCDDNWGEKEDQVVCKQLGCGKSLHPSPKTRKIYGPGAGRIWLDDVNCSGKEQSLEFCRHRLWGYHDCTHKEDVEVICTDFDVTGHHHHHHHHGGQ
notes: also called mCD5L:p40; rCD5L:p40
For the molecule B1, the binding result with Il12rb1 is “binds”.

B2: recombinant CD5L monomer with His tag (mCD5L construct) (ligand)
chain: ESPTKVQLVGGAHRCEGRVEVEHNGQWGTVCDDGWDRRDVAVVCRELNCGAVIQTPRGASYQPPASEQRVLIQGVDCNGTEDTLAQCELNYDVFDCSHEEDAGAQCENPDSDLLFIPEDVRLVDGPGHCQGRVEVLHQSQWSTVCKAGWNLQVSKVVCRQLGCGRALLTYGSCNKSTQGKGPIWMGKMSCSGQEANLRSCLLSRLENNCTHGEDTWMECEDPFELKLVGGDTPCSGRLEVLHKGSWGSVCDDNWGEKEDQVVCKQLGCGKSLHPSPKTRKIYGPGAGRIWLDDVNCSGKEQSLEFCRHRLWGYHDCTHKEDVEVICTDFDVTGHHHHHHH
notes: Made by Biolegend in 293E cells, purified on Ni Sepharose and Superdex S200 (monomer fraction); also called soluble CD5L; sCD5L
Regarding B2, in data set [1], the binding result was “binds”.
